According to patent publication US20220332804A1 (CSL INNOVATION, published 2022):

Assays:
Test in all cases: SPR, KD relative to WT C2;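 further: biacore SPR at 37 °C, anti-C2 mAbs captured via immobilised goat anti-human IgG, C2 alanine or serine surface mutants as analytes, 1:1 model fitted, double-referenced sensograms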
human C2 I438A = target: T1, human C2 I438A (human, UniProt P06681 21-752)
T1 sequence: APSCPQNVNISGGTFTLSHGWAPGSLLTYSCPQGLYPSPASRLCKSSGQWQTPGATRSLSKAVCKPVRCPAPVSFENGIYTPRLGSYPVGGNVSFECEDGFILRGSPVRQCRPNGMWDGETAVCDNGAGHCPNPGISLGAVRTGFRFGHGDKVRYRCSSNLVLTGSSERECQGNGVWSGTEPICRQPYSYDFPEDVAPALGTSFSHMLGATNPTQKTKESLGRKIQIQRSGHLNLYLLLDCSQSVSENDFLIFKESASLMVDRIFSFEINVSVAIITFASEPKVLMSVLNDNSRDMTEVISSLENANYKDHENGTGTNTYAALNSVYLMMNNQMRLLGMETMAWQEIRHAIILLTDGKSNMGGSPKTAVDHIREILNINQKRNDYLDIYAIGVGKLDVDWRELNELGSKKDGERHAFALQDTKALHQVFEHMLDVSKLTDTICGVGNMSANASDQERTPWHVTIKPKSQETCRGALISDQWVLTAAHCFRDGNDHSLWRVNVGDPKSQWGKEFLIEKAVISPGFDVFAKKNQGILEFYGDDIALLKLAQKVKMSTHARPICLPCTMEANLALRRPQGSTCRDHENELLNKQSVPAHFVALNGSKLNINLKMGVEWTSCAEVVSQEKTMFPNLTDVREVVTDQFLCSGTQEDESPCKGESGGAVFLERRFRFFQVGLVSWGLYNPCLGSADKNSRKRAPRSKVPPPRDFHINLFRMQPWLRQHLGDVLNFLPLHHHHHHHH

human C2 K274A = target: T2, human C2 K274A (human, UniProt P06681 21-752)
T2 sequence: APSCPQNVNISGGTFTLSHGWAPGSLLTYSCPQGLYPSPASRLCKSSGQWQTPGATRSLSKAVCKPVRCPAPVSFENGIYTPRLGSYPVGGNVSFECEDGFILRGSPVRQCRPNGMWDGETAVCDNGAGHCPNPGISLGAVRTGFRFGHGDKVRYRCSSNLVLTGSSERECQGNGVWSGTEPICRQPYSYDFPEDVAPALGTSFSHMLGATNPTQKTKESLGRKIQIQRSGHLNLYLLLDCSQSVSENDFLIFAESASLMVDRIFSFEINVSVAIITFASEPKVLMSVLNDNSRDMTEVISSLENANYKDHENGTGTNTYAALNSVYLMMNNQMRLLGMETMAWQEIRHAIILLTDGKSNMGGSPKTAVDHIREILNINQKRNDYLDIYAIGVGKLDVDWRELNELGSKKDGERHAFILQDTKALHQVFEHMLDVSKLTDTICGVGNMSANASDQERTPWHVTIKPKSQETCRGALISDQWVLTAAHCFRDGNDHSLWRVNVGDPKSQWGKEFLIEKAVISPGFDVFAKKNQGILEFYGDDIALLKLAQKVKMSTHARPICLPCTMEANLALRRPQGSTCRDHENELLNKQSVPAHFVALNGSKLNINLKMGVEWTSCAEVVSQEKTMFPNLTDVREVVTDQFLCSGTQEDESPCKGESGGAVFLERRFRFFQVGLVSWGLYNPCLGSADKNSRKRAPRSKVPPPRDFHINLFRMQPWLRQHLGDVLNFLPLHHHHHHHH

human C2 Q489A = target: T3, human C2 Q489A (human, UniProt P06681 21-752)
T3 sequence: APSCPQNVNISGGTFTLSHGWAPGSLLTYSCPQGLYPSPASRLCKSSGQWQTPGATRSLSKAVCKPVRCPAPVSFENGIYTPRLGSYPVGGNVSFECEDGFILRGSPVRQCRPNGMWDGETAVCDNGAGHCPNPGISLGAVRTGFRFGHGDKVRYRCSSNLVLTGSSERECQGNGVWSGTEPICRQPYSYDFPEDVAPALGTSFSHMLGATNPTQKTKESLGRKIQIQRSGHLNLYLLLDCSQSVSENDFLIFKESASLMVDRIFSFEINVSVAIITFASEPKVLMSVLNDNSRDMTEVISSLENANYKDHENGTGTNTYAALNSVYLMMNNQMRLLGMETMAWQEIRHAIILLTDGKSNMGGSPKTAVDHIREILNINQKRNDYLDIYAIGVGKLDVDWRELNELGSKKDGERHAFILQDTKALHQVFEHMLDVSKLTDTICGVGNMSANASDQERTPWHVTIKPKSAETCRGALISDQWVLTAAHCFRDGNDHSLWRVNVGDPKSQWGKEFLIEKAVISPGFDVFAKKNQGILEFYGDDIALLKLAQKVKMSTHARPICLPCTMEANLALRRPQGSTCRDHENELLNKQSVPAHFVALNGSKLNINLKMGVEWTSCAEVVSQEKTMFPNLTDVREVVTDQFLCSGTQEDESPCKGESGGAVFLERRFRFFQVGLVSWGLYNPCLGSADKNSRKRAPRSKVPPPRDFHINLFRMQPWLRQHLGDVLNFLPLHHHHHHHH

human C2 R510A = target: T4, human C2 R510A (human, UniProt P06681 21-752)
T4 sequence: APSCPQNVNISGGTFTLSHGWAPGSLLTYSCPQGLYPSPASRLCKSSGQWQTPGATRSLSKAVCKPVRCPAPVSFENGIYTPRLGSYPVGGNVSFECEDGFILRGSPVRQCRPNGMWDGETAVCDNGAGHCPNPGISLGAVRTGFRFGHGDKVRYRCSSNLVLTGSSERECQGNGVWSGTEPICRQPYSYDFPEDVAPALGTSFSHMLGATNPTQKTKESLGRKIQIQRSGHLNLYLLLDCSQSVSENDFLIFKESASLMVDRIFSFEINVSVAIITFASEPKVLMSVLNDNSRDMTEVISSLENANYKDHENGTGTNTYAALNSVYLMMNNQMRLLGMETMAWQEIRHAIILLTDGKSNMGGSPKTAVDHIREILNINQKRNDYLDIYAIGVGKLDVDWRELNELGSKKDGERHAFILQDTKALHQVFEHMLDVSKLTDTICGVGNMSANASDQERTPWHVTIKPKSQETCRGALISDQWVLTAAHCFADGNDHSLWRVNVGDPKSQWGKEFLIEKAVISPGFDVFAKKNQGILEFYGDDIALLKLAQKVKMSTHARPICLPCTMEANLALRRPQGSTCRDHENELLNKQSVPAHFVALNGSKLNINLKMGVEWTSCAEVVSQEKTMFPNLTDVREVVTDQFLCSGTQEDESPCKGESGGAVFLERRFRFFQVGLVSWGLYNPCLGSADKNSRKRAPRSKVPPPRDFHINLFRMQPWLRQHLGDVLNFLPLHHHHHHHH

B1: RF16-226 (antibody, human IgG4 S228P, lambda)
heavy: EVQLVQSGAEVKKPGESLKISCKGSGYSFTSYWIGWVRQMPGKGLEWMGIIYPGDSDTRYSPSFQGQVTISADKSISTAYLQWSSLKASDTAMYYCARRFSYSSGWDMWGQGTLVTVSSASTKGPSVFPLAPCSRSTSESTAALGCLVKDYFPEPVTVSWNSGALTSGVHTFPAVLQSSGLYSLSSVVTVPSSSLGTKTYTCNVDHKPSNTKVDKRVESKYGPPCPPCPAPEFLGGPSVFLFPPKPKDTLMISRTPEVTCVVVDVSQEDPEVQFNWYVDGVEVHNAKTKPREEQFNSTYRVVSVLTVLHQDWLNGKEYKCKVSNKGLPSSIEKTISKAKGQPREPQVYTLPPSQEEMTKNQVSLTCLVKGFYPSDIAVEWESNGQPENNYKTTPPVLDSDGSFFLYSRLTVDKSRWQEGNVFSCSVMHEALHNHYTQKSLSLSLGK
light: SYELTQPPSVSVSPGQTARITCSGDALTSKYVAWYQQKSGLAPLLVIYEDTRRPSGIPAKFSGSSSGSVATLTISGAHGDDEADYYCYSTDASGHQRVFGGGTKLTVLSQPKAAPSVTLFPPSSEELQANKATLVCLISDFYPGAVTVAWKADGSPVKAGVETTKPSKQSNNKYAASSYLSLTPEQWKSHRSYSCQVTHEGSTVEKTVAPTECS
notes: pH-dependent anti-C2 antibody from a phage display library; also called WT
Human C2 I438A
  Fold diff: 1 fold
Human C2 K274A
  Fold diff: 29 fold
Human C2 Q489A
  Fold diff: 10 fold
Human C2 R510A
  Fold diff: 11 fold
